Measured values reported in US20170052184A1 (published 2017).
Ends that are not written are not given here.

Legend:
[1] = target: T1, C113T109N biotin labeled HCV core peptide (hepatitis C virus, also: biotin labeled, position not given here); test: EIA; Ab 62.5 ng/mL captured on anti-mouse Fc; bt-peptide 500 ng/mL
T1 peptide: RGSRPSWGPND

[2] = target: T2, Mut1T110N biotin labeled HCV core peptide (hepatitis C virus, biotin labeled); test: as above
T2 peptide: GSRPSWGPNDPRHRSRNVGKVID

[3] = target: T3, C113WT biotin labeled HCV core peptide (hepatitis C virus, also: biotin labeled, position not given here); test: as above
T3 peptide: RGSRPSWGPTD

[4] = target: T4, Mut6T110S biotin labeled HCV core peptide (hepatitis C virus); test: as above
[5] = target: T5, WT1STHV biotin labeled HCV core peptide (hepatitis C virus, biotin labeled); test: as above
T5 peptide: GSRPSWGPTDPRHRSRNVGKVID

[6] = target: T1, C113T109N biotin labeled HCV core …; test: EIA; Ab 7.813 ng/mL captured on anti-mouse Fc; bt-peptide 500 ng/mL
[7] = target: T2, Mut1T110N biotin labeled HCV core …; test: as above
[8] = target: T3, C113WT biotin labeled HCV core peptide; test: as above
[9] = target: T4, Mut6T110S biotin labeled HCV core …; test: as above
[10] = target: T5, WT1STHV biotin labeled HCV core peptide; test: as above
[11] = target: T1, C113T109N biotin labeled HCV core …; test: EIA; Ab 125 ng/mL captured on anti-mouse Fc; bt-peptide 500 ng/mL
[12] = target: T2, Mut1T110N biotin labeled HCV core …; test: as above
[13] = target: T3, C113WT biotin labeled HCV core peptide; test: as above
[14] = target: T4, Mut6T110S biotin labeled HCV core …; test: as above
[15] = target: T5, WT1STHV biotin labeled HCV core peptide; test: as above
[16] = target: T2, Mut1T110N biotin labeled HCV core …; test: EIA; Ab 250 ng/mL captured on anti-mouse Fc; bt-peptide 500 ng/mL
[17] = target: T4, Mut6T110S biotin labeled HCV core …; test: as above
[18] = target: T5, WT1STHV biotin labeled HCV core peptide; test: as above
[19] = target: T1, C113T109N biotin labeled HCV core …; test: EIA; Ab 2000 ng/mL captured on anti-mouse Fc; bt-peptide 500 ng/mL
[20] = target: T2, Mut1T110N biotin labeled HCV core …; test: as above
[21] = target: T3, C113WT biotin labeled HCV core peptide; test: as above
[22] = target: T4, Mut6T110S biotin labeled HCV core …; test: as above
[23] = target: T5, WT1STHV biotin labeled HCV core peptide; test: as above
[24] = target: T1, C113T109N biotin labeled HCV core …; test: EIA; Ab 31.25 ng/mL captured on anti-mouse Fc; bt-peptide 500 ng/mL
[25] = target: T3, C113WT biotin labeled HCV core peptide; test: as above
[26] = target: T4, Mut6T110S biotin labeled HCV core …; test: as above
[27] = target: T5, WT1STHV biotin labeled HCV core peptide; test: as above

B1: HCV Neo4 monoclonal antibody (antibody, V domains shown)
VH: QIQLKESGPAVIKPSQSLSLTCIVSGFSITSSVYCWQWIRQPPGKGLEWMGRICYDGSVDYSPSITSRGTISRDTSLNKVFFQLSSVTNEDTAMYYCSRENHIDYYDTTYPSFDVWGAGTTVTVSS
VL: DIVLTQSPASLIVSLGQRATISCRASKSVNEYGYTYMHWYQQKPGLPPKLLIYLASNLDSGVPARFSGSGSGTDFTLNIHPVEEEDAATYYCQHSRELPYTFGGGTKLEIKR
B1 was tested, and the “signal at 492 nm” value [1] was 0.111 OD 492 nm, the “signal at 492 nm” value [2] was 0.139 OD 492 nm and the “signal at 492 nm” value [3] was 0.0626 OD 492 nm. For the same binder, the “signal at 492 nm” value [4] was 1.11 OD 492 nm, the “signal at 492 nm” value [5] was 1.85 OD 492 nm and the “signal at 492 nm” value [6] was 0.0751 OD 492 nm. The “signal at 492 nm” value [7] was 0.0729 OD 492 nm, the “signal at 492 nm” value [8] was 0.0731 OD 492 nm and the “signal at 492 nm” value [9] was 0.132 OD 492 nm. The “signal at 492 nm” value [10] was 1.04 OD 492 nm, the “signal at 492 nm” value [11] was 0.0858 OD 492 nm and the “signal at 492 nm” value [12] was 0.204 OD 492 nm. The “signal at 492 nm” value [13] was 0.0599 OD 492 nm, the “signal at 492 nm” value [14] was 1.27 OD 492 nm and the “signal at 492 nm” value [15] was 1.93 OD 492 nm. The “signal at 492 nm” value [16] was 0.089 OD 492 nm, the “signal at 492 nm” value [17] was 1.15 OD 492 nm and the “signal at 492 nm” value [18] was 1.99 OD 492 nm. The “signal at 492 nm” value [19] was 0.059 OD 492 nm, the “signal at 492 nm” value [20] was 0.0882 OD 492 nm and the “signal at 492 nm” value [21] was 0.0766 OD 492 nm. The “signal at 492 nm” value [22] was 1.17 OD 492 nm, the “signal at 492 nm” value [23] was 1.9 OD 492 nm and the “signal at 492 nm” value [24] was 0.0815 OD 492 nm. The “signal at 492 nm” value [25] was 0.0622 OD 492 nm, the “signal at 492 nm” value [26] was 0.48 OD 492 nm and the “signal at 492 nm” value [27] was 1.67 OD 492 nm.
